Measurements as given in US20110293610A1 (published 2011).

How the values were obtained:
[1] = target: T1, biotinylated B Lymphocyte Stimulator, soluble form (human, UniProt Q9Y275 134-285, biotinylated with NHS-biotin, molar ratio 20:1 biotin:protein); assay: phage scFv, receptor binding inhibition on IM9 cells
T1 construct: also called bio-B Lymphocyte Stimulator; free B Lymphocyte Stimulator
Experimental: Fifty-five μl of each appropriate phage supernatant was added to each well and the final volume in each well was 65 μl. Plates were then incubated at room temperature for 30 minutes.
Plates were washed three times in PBST and three times in PBS, tapped dry and 50 μl of streptavidin-Delfia (Wallac) was added to each well at 1:1000 dilution in the Manufacturer's assay buffer. The plates were then incubated at room temperature for 1 hour and washed six times in Delfia wash solution (Wallac). After tapping the plates dry, 100 μl per well of Delfia enhancement solution (Wallac) was added. The plates were gently tapped to encourage micelle formation, incubated at room temperature for 10 minutes, and fluorescence read on a Wallac 1420 workstation at […].

[2] = target: T2, B Lymphocyte Stimulator, soluble form (human) (human, UniProt Q9Y275 134-285, biotinylated with NHS-biotin where used as biotinylated B Lymphocyte Stimulator); assay: phage competition ELISA
T2 construct: Coated on plastic, captured on streptavidin plates, amine-coupled to a CM5 chip or free in solution, depending on the assay; also called BLyS; immobilized B Lymphocyte Stimulator

TNF-beta = target: T3, TNF-beta (human, UniProt P01374 35-205); assay: phage ELISA
T3 construct: also called TNFβ; Tumour Necrosis Factor-beta
T3 sequence (looked up): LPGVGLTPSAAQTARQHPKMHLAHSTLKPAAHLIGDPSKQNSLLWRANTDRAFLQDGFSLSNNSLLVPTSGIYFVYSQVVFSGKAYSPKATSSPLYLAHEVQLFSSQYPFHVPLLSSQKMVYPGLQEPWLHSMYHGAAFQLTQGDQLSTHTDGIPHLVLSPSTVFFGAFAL

[3] = target: T4, membrane-bound B Lymphocyte Stimulator on U937 plasma membrane preparations (human, UniProt Q9Y275 1-285); assay: phage ELISA
T4 construct: Natural protein in plasma membrane fractions of the human cell line U937 coated on ELISA plates; also called U937 plasma membranes; U937 membranes

Fas ligand = target: T5, Fas ligand (human, UniProt P48023 134-281, limits assumed); assay: phage ELISA
T5 sequence (looked up): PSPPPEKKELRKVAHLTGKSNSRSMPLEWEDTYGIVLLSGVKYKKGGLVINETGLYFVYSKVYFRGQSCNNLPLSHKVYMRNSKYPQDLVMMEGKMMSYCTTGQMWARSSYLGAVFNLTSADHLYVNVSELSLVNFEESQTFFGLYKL

TNF-alpha = target: T6, TNF-alpha (human, UniProt P01375 77-233); assay: phage ELISA
T6 construct: also called TNFα; TNF-α
T6 sequence (P01375 77-233 limits assumed): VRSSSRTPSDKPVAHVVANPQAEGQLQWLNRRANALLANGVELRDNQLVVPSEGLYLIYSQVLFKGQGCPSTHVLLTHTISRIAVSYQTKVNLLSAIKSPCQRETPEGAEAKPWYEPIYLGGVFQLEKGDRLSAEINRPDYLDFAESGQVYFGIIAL

TRAIL = target: T7, TRAIL (human, UniProt P50591 114-281); assay: phage ELISA
T7 construct: also called TNF-related apoptosis inducing ligand
T7 sequence (P50591 114-281 limits assumed): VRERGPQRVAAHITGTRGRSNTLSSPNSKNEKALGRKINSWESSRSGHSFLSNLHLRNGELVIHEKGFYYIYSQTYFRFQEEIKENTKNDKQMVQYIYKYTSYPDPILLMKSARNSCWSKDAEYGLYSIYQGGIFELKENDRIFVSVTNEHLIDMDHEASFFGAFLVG

B1: I018C02 (scFv)
scFv: QVQLQQSGSELKKPGASVIVSCKVSGYSLTKMSMHWVRQSPGEGLEWVGGIDPETRQPVYAQKFQGRVTITKDTSASAAYMELSSLGSEDTALYYCARATYDPLTGYSFDGFDIWGQGTLVTVSSGGGGSGGGGSGGGGSQSVLTQPASVSGSPGQSITISCTGTSSDVGGYNYVSWYQQHPGKAPKLMIYEGSKRPSGVSNRFSGSKSGNTASLTISGLQAEDEADYYCSSYTTRSTRVFGGGTKLTVLG
B1: binds [1].

B2: I016F04 (scFv)
scFv: QVQLQQSGSELKKPGASVKVSCKVSGYSLTKMSMHWVRQSPGEGLEWVGGIDPETRQPVYAQKFQGRVTITKDTSASAAYMELSSLGSEDTALYYCARATYDPLTGYSFDGFDIWGQGTLVTVSSGGGGSGGGGSGGGGSQSVLTQPASVSGSPGQSITISCTGTSSDVGGYNYVSWYQQHPGKAPKLMIYEGSKRPSGVSNRFSGSKSGNTASLTISGLQAEDEADYYCSSYTTRSTRVFGGGTKLTVLG
B2: binds [1].

B3: I028A06 (scFv)
scFv: QVQLVESGGGLIQPGGSLRLSCAASGFSFGSYAMSWIRQAPGKGLEWVSTSTGRGGSTYYADSVKGRFTISRDNAKNSLYLQMNSLRAEDAAVYYCARGGDYDILTGLYYYGMDVWGKGTMVTVSSGGGGSGGGGSGGGGSSYVLTQPPSVSGTPGQRVTISCSGGRSNIGSNTVKWYQQLPGTAPKLLIYGNDQRPSGVPDRFSGSKSGTSASLAITGVQAEDEADYYCQSYDSSLRGSRVFGTGTKVTVLG
B3: binds [1].

B4: I031F02 (scFv)
scFv: QVQLVQSGAEVRKPGSSVKVSCKASGGSFSSHVFSWVRQAPGQGLEWVGGITPKFATPNYAQKFQHRVTITADELTRTVFMDLSGLRSEDTAVYYCARGYDSSAFRAFDIWGQGTMVTVSSGGGGSGGGGSGGGGSAQSVLTQPPSVSGAPGQRVTISCTGSSSNIGAGYDVQWYQQLPGTAPKLLIHGNNNRPSGVPDRFSGSKSGTSASLAITGLQDEDEADYYCQSYDSSLSFSGYVFGTGTKVTVLG
B4: binds [1].

B5: I061H01 (scFv)
scFv: QVQLVQSGGGLVKPGGSLRLSCAASGFTFSNAWMSWVRQAPGKGLQWVGRIKSKTDGGTTDYAAPVKGRFTISRDDSKNTLYLQMNSLKTEDTAVYYCTTFNPTYDILTGYYIGGYFQHWGQGTMVTVSSGGGGSGGGGSGGGGSQSVLTQPASVSGSPGQSITISCTGTSSDVGGYNYVSWYQQHPGKAPKLMIYEGSKRPSGVSNRFSGSKSGNTASLTISGLQAEDEADYYCSSYTTRSTRVFGGGTQLTVLG
notes: also called 1061H01
B5: binds [1].

B6: I006D08 (scFv)
scFv: QVQLQQSGAEVKKPGSSVRVSCKASGGTFNNNAINWVRQAPGQGLEWMGGIIPMFGTAKYSQNFQGRVAITADESTSTASMELSSLRSEDTAVYYCARSRDLLLFPHYGMDVWGRGTMVTVSSGGGGSGGGGSGGGGSAFSSELTQDPAVSVALGQTVRVTCQGDSLRSYYASWYQQKPGQAPVLVIYGKNNRPSGIPDRFSGSSSGNTASLTITGAQAEDEADYYCNSRDSSGNHWVFGGGTELTVLG
B6: binds [1].

B7: I029D07 (scFv)
scFv: QVQLQQSGAEVKKPGSSVKVSCKASGYTFTKYTMHWVRQAPGQGPEWMGWINGGSGDTKYSRKFQGRVTITKDTSASAAYMELSSLGSEDTALYYCARATYDPLTGYSFDGFDIWGQGTLVTVSSGGGGSGGGGSGGGGSQSVLTQPASVSGSPGQSITISCTGTSSDVGGYNYVSWYQQHPGKAPKLMIYDVSKRPSGVPDRFSGSKSGNTASLTISGLQAEDEGDYYCSSYAGPSRVFGGGTKVEIKR
B7: binds [1].

B8: I022E02 (scFv)
scFv: QVQLVQSGAEVKKPGASVMVSCKASGYTFSTYAVHWVRQAPGQGLEWMGRINAGNGYTKYSQKFQGRVTITKDTSASAAYMELSSLGSEDTALYYCARATYDPLTGYSFDGLDIWGKGTMVTVSSGGGGSGGGGSGGGGSQSVLTQPASVSGSPGQSITISCTGTSSDVGGYNYVSWYQQHPGKAPKLMIYEGSKRPSGVSNRFSGSKSGNTASLTISGLQAEDEADYYCSSYTTRSTRVFGGGTKLTVLG
B8: binds [1].

B9: I008C02 (scFv)
scFv: AVQLQESGPGLVKPSETLSLTCSVSGASMTTNKFYWSWIRQPPGKGLEWIGNINYSKSTNYNPSLKSRITISVDTSKNQLSLKLNSVTAADTAVYYCARHVRDYDILTGYYRGHYFDYWGQGTMVTVSSGGGGSGGGGSGGGGSQSVLTQPASVSGSPGQSITISCTGTSSDVGGYNYVSWYQQHPGKAPKLMIYEGSKRPSGVSNRFSGSKSGNTASLTISGLQAEDEADYYCSSYTTRSTRVFGGGTKLTVLG
B9: binds [1].

B10: I051C04 (scFv)
scFv: QVQLQQSGAEVKKPGSSVKVSCRTSGGTFSNYGLSWVRQAPGQGLEWMGGVIPISSTIKYGQKFQDRLTIAADDLTNTTFMELSSLRPEDTAVYYCARAATTSQKHNKYAYYFYGMDVWGQGTMVTVSSGGGGSGGGGSGGGGSAQSALTQPASVSGSPGQSITISCTGTSSDVGGYNYVSWYQQHPGKAPKLMIYEVSNRPSGVSNRFSGSKSGNTASLTISGLQAEDEADYYCSSYTSSSTLVFGGGTKVTVLG
notes: also called 1051C04
B10: binds [2]; no binding (TNF-beta); binds [3]. B10: no binding (Fas ligand); no binding (TNF-alpha); no binding (TRAIL).

B11: I006D07 (scFv)
scFv: EVQLVESGGGVVQPGGSLRLSCAASGFTVNSYAMHWVRQAPGKGLQWVAVIPYDGSKKYYADSVKGRFTVSRDNSKNTLYLQMNSLRAEDTAVYYCARSHYDILTGLNYWYFDLWGRGTLVTVSSGGGGSGGGGSGGGGSSELTQDPAVSVALGQTVRITCQGDSLRSYYASWYQQKPGQAPVLVIYGKNNRPSGIPDRFSGSSSGNTASLTITGAQAEDEADYYCNSRGSSGNHVVFGGGTKLTVLG
B11: binds [1].

B12: I007H08 (scFv)
scFv: QVQLQQSGPGLVKPSQILSLTCAISGDSVASNGAAWNWIRQSPSRGLEWLGRTYYRSKWYVDYAVSVKSRITINPDTSKNQFSLQLNSVTPEDTAVYYCARDRYDILTGYYYYGMDVWGQGTMVTVSSGGGGSGGGGSGGGGSQSALTQPASVSGSRGQSITISCTGTTGDVGGYDYVSWYQQHPGKAPKLLIYGNSNRPSGVPDRFSASKSGNTASLTISGLQAEDEADYFCNTYAPPGIIMFGGGTKLTVLG
B12: binds [1].

B13: I008A11 (scFv)
scFv: QVQLQQSGPGLVKPSQILSLTCAISGDSVASNGAAWNWIRQSPSRGLEWLGRTYYRSKWYVDYAVSVKSRITINPDTSKNQFSLQLNSVTPEDTAVYYCARDRYDILTGYYYYGMDVWGQGTMVTVSSGGGGSGGGGSGGGGSQSALTQPASVSGSRGQSITISCTGTTGDVGGYDYVSWYQQHPGKAPKLLIYGNSNRPSGVPDRFSASKSGNTASLTISGLQAEDEADYFCSTYAPPGIIMFGGGTKLTVLG
B13: binds [1].

B14: I008C03 (scFv)
scFv: QMQLVRSGGGVVQPGRSLRLSCAASGFTFSSYGMHWVRQAPGKGLEWVSVTYSGGNTNYADSVRGRFTISRDNSKNTLYLQMNSLRAEDTAVYYCAREGSYDILTGYYVGVGRMDVWGKGTLVTVSSGGGGSGGGGSGGGGSSELTQDPAVSVALGQTVRITCQGDSLRSYYTNWFQQKPGQAPLLVVYAKNKRPSGIPDRFSGSSSGNTASLTITGAQAEDEADYYCNSRDSSGNHVVFGGGTKLTVLG
B14: binds [1].

B15: I031C03 (scFv)
scFv: QMQLVQSGAEVRKPGSSVKVSCKASGGSFSSHVFSWVRQAPGQGLEWVGGITPKFATPNYAQKFQHRVTITADELTRTVFMDLSGLRSEDTAVYYCARGYDSSAFRAFDIWGQGTLVTVSSGGGGSGGGGSGGGGSAQSVLTQPPSVSAAPGQKVTISCSGSSSNIGNNYVSWYQQFPGTAPKLLIYDNNNRPSGVPDRFSGSKSGTSATLGITGLQTGDEADYYCGTWDRSLSVVVFGGGTKVTVLG
B15: binds [1].

B16: I061E07 (scFv)
scFv: QVQLQQSGAEVKKTGASVKVSCKASGYIFADYYVHWVRQAAGQGLEWMGWINPNTGSTKYAQKFQDRVTMTRDTSIKTVYMELRRLRSDDTALYYCARATYDPLTGYSFDGFDIWGKGTMVTVSSGGGGSGGGGSGGGGSQSVLTQPPSASGTPGQRVTISCSGSSSNIGSNTVNWYQRLPGAAPQLLIYNNDQRPSGIPDRFSGSKSGTSGSLVISGLQSEDEADYYCASWDDSLNGRVFGGGTKLTVLG
B16: binds [1].
